The text below walks through data of US20200017877.

Holding throughout (test): cell_activity
One series relates to caCLPG1.1 right TALEN. The following applies: pair; 0/14 colonies confirmed (Table 6).
Series [1] has as its system Kiss1.1a (tilapia) right TALEN. As to conditions: pair, tilapia Kiss20; range 48-91; Kiss1.1a locus.
The test system of another series is ssRAG2.1 right TALEN. As to conditions: pair.
The next series relates to ssP65.8 left TALEN. As to conditions: pair.
Another series concerns ssTp53 left TALEN. The following applies: pair.
Another series relates to caFecB6.1 left TALEN. The following applies: pair.
The next series has as its system ssSRY3.2 left TALEN. The following applies: pair.
Another series concerns btGDF83.6-G left TALEN. As to conditions: pair, listed as btGDF83.6N.
Another series has as its system btRosa1.2 right TALEN. As to conditions: pair.
For the next series, the system named is ssLDLR2.1 right TALEN. As to conditions: pair LDLRE2.1, pig male fibroblasts.
The next series relates to ssRAG2.1 left TALEN. As to conditions: pair.
For a further series, the system named is caCLPG1.1 left TALEN. As to conditions: pair caCLPG1.1.
Another series relates to ssDAZL3.1 left TALEN. The following applies: pair.
The test system of a further series is ssDMDE6 right TALEN. As to conditions: pair, pig fibroblasts.
The subject of a further series is ssDMDE6 left TALEN. The following applies: pair, pig fibroblasts.
The next series deals with ssEIF4GI14.1 right TALEN. As to conditions: pair.
For the next series, the system named is ssAPC14.2 right TALEN. The following applies: pair.
For the next series, the system named is ssGDF83.6 left TALEN. The following applies: pair, 3/90.
The test system of the next series is caFecB6.1 right TALEN. The following applies: pair.
Another series relates to ssEIF4GI14.1 left TALEN. The following applies: pair.
Another series relates to btGDF83.1 left TALEN. As to conditions: pair, cattle fibroblasts.
The subject of another series is ssKissR3.2 left TALEN. As to conditions: pair.
The subject of another series is ssDAZL3.1 right TALEN. The following applies: pair.
The next series relates to ssTp53 right TALEN. The following applies: pair.
The next series concerns btGDF83.1 right TALEN. As to conditions: pair, cattle fibroblasts.
For a further series, the system named is btRosa1.2 left TALEN. As to conditions: pair.
The next series has as its system btGDF83.6 right TALEN. As to conditions: pair, listed as btGDF83.6N.
Another series deals with ssGDF83.6 right TALEN. The following applies: pair, 3/90.
Another series relates to ssSRY3.2 right TALEN. As to conditions: pair.
The next series relates to ssKissR3.2 right TALEN. The following applies: pair.
The test system of another series is ssDMDE7.1 left TALEN. The following applies: pair, pig fibroblasts.
Another series relates to ssDMDE7.1 right TALEN. The following applies: pair, pig fibroblasts.
Series [2] relates to Kiss1.1a (tilapia) left TALEN. The following applies: pair, tilapia Kiss20; range 48-91; Kiss1.1a locus.
A further series deals with btACAN12 left TALEN. As to conditions: pair, cattle fibroblasts.
Another series has as its system btACAN12 right TALEN. The following applies: pair, cattle fibroblasts.
A further series concerns ssAPC14.2 left TALEN. As to conditions: pair.
Another series relates to ssLDLR2.1 left TALEN. The following applies: pair LDLRE2.1, pig male fibroblasts.
The subject of the next series is ssP65.8 right TALEN. The following applies: pair.

“GCTGGGACCACCTGTCAG (double strand) [CLPG1.1 right half-site (sense strand)]” gave an activity in the series with caCLPG1.1 right TALEN of 4 % HDR day 3.

Sequence “ACAATGGCTACATTTAC (double strand) [Kiss1.1a right half-site (sense strand)]” registered an activity (% mosaic somatic mutation) in series [1] of 91.

In the series with ssRAG2.1 right TALEN, “ATTCAAAAGCAGCTTAG (double strand) [RAG2.1 right half-site (sense strand)]” yielded an activity of 47 % HDR day 3.

Take “CTCCTCCATTGCGGA (double strand) [P65.8 left half-site]”: the activity with ssP65.8 left TALEN is 18 % HDR day 3.

“GGCACCCGTGTCCGCGC (double strand) [Tp53 left half-site]”: in the series on ssTp53 left TALEN, the activity was found to be 22 % HDR day 3.

With “ACAGAGGAGGCCAGCTGGTT (double strand) [FecB6.1 left half-site]”, the activity with caFecB6.1 left TALEN came to 17 % HDR day 3.

“ATACATTTTACACACATAT (double strand) [SRY3.2 left half-site]” returned an activity in the series with ssSRY3.2 left TALEN of 30 % HDR day 3.

In the series with btGDF83.6-G left TALEN, “GCTCTGGAGAATGT (double strand) [GDF83.6-G left half-site]” registered an activity of 18 % HDR day 3.

On to “AGGTAGGGTGGAGAGAG (double strand) [Rosa1.2 right half-site (sense strand)]”, for which the activity with btRosa1.2 right TALEN turned out to be 45 % HDR day 3.

Consider “AGTGCAAGGACGGGTCCG (double strand) [LDLR2.1 right half-site (sense strand)]”, for which, in the series with ssLDLR2.1 right TALEN, the activity (% modified day 3) came to 19.

In turn, “ACCTTCCTCCTCTCCGCT (double strand) [RAG2.1 left half-site]” displayed an activity with ssRAG2.1 left TALEN of 47 % HDR day 3.

In the series with caCLPG1.1 left TALEN, “GAGAGCGCAGGAATCCAGG (double strand) [CLPG1.1 left half-site]” had an activity of 4 % HDR day 3.

With “GGATGAAACCGAAATT (double strand) [DAZL3.1 left half-site]”, the activity in the series on ssDAZL3.1 left TALEN stood at 25 % HDR day 3.

Turning to “TCTATACCTAGGTCAAAAATGTAATGAAGAAAGTATCAGTTAGGCATAGAGAAACTACTGGA (double strand) [DMD exon 6 target]”, the activity (% modified day 3) in the series with ssDMDE6 right TALEN and in the series on ssDMDE6 left TALEN was 25 in each case.

In the series with ssEIF4GI14.1 right TALEN, “AGCAACCGTGGGCCCCCA (double strand) [EIF4GI14.1 right half-site (sense strand)]” yielded an activity of 52 % HDR day 3.

“ACAGAAATTCTGGGTC (double strand) [APC14.2 right half-site (sense strand)]”: in the series with ssAPC14.2 right TALEN, the activity stood at 48 % HDR day 3.

In the series with ssGDF83.6 left TALEN, “ACTGCTCTGGAGAGT (double strand) [ssGDF83.6 left half-site]” returned an activity (% HDR+ colonies) of 3.

The sequence “ATATCAGACGGTGTTGATG (double strand) [FecB6.1 right half-site (sense strand)]” registered an activity in the series on caFecB6.1 right TALEN of 17 % HDR day 3.

Regarding “CCGTCCTTTGCCAACCTT (double strand) [EIF4GI14.1 left half-site]”, the activity in the series with ssEIF4GI14.1 left TALEN is 52 % HDR day 3.

With “GTGATGAACACTCCACAGAATCT (double strand) [GDF83.1 left half-site]”, the activity (% modified day 3) with btGDF83.1 left TALEN came out at 17.

As to “GCTCTACTCTACCCC (double strand) [KissR3.2 left half-site]”, the activity in the series with ssKissR3.2 left TALEN was determined as 53 % HDR day 3.

For “ATATGGTTCAGTAAAAG (double strand) [DAZL3.1 right half-site (sense strand)]”, the activity with ssDAZL3.1 right TALEN was determined as 25 % HDR day 3.

Sequence “AAGTCAGAGTACATG (double strand) [Tp53 right half-site (sense strand)]” had an activity with ssTp53 right TALEN of 22 % HDR day 3.

Consider “CTCTAACTGTGGATTTTGA (double strand) [GDF83.1 right half-site (sense strand)]”, for which the activity (% modified day 3) with btGDF83.1 right TALEN was found to be 17.

Sequence “CTCGCATTGCCCACT (double strand) [Rosa1.2 left half-site]” came in with an activity in the series on btRosa1.2 left TALEN of 45 % HDR day 3.

Turning to “AAAAGTATCCTCAT (double strand) [GDF83.6 right half-site (sense strand)]”, the activity in the series on btGDF83.6 right TALEN was found to be 18 % HDR day 3.

“ACAAAAATACCCTCAC (double strand) [ssGDF83.6 right half-site (sense strand)]” came in with an activity (% HDR+ colonies) in the series on ssGDF83.6 right TALEN of 3.

In turn, “ATTAATGGCCTGAACCT (double strand) [SRY3.2 right half-site (sense strand)]” returned an activity in the series with ssSRY3.2 right TALEN of 30 % HDR day 3.

Take “TGGGCGACTTCATGTGC (double strand) [KissR3.2 right half-site (sense strand)]”: in the series with ssKissR3.2 right TALEN, the activity stood at 53 % HDR day 3.

On to “GCCACACAACGACTGGAACATGCATTCAACATCGCCAAGTATCAGTTAGGCATAGAGAAACTACTGGATCCTGAAGGTT (double strand) [DMD exon 7 target]”, for which the activity (% modified day 3) with ssDMDE7.1 left TALEN and in the series on ssDMDE7.1 right TALEN was 27 in each case.

In series [2], “ACAACCCTCTCAGCCTT (double strand) [Kiss1.1a left half-site]” registered an activity (% mosaic somatic mutation) of 91.

Turning to “CCCTCTTCCTTTCCTCCAGGGATCCCTCCTACATGGCCTCCCACTGGAGAAGCAACAGAGGAGCACACAGA (double strand) [ACAN12 target]”, the activity (% modified day 3) in the series with btACAN12 left TALEN and with btACAN12 right TALEN was 29 throughout.

For the sequence “GGAAGAAGTATCAGCCAT (double strand) [APC14.2 left half-site]”, the activity in the series with ssAPC14.2 left TALEN was 48 % HDR day 3.

For the sequence “CTCCTACAAGTGGATTT (double strand) [LDLR2.1 left half-site]”, the activity (% modified day 3) with ssLDLR2.1 left TALEN was 19.

Regarding “CTTCTGAGTCAGATC (double strand) [P65.8 right half-site (sense strand)]”, the activity in the series on ssP65.8 right TALEN is 18 % HDR day 3.
